# Laboratory results as given in US20140274782A1, “AFFINITY REAGENTS AND METHODS FOR DETECTION, PURIFICATION, AND PROTEOMIC ANALYSIS OF METHYLATED PROTEINS” (The Board of Trustees of the Leland Stanford Junior …, priority 2013, published 2014).
# T1: G9a and GLP (Homo sapiens, UniProt Q96KQ7+Q9H9B1)
# T1 sequence (Q96KQ7 2-1210 limits assumed): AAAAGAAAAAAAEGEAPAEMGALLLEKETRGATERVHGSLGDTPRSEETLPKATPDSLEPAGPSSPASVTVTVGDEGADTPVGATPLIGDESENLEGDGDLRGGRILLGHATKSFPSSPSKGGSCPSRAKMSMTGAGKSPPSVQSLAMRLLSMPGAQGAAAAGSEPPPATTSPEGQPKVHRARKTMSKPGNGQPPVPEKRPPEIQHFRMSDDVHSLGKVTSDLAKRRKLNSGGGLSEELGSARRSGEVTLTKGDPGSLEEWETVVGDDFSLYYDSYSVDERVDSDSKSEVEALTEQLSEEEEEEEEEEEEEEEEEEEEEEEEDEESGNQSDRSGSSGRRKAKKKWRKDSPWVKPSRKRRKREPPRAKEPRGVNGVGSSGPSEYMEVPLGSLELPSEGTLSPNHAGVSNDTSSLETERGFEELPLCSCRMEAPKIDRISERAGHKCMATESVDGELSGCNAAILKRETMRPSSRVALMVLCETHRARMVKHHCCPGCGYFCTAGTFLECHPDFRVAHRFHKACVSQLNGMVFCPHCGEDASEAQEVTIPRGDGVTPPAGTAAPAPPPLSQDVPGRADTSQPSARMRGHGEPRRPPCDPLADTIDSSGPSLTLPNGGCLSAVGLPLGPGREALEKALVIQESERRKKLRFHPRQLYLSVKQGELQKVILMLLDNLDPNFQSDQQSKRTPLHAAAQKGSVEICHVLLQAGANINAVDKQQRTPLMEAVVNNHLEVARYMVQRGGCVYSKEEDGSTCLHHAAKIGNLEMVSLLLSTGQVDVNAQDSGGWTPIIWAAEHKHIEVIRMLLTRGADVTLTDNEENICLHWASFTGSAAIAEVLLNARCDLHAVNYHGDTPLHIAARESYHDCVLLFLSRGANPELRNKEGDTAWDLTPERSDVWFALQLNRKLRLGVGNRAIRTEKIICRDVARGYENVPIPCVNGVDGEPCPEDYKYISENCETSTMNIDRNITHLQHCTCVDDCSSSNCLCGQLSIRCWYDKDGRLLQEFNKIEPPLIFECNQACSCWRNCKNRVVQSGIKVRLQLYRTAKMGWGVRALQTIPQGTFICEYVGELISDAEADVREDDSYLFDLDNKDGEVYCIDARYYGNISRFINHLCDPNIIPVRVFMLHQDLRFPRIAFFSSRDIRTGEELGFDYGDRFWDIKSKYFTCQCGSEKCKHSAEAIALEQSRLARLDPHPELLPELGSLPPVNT
# T1 sequence (Q9H9B1 2-1298 limits assumed): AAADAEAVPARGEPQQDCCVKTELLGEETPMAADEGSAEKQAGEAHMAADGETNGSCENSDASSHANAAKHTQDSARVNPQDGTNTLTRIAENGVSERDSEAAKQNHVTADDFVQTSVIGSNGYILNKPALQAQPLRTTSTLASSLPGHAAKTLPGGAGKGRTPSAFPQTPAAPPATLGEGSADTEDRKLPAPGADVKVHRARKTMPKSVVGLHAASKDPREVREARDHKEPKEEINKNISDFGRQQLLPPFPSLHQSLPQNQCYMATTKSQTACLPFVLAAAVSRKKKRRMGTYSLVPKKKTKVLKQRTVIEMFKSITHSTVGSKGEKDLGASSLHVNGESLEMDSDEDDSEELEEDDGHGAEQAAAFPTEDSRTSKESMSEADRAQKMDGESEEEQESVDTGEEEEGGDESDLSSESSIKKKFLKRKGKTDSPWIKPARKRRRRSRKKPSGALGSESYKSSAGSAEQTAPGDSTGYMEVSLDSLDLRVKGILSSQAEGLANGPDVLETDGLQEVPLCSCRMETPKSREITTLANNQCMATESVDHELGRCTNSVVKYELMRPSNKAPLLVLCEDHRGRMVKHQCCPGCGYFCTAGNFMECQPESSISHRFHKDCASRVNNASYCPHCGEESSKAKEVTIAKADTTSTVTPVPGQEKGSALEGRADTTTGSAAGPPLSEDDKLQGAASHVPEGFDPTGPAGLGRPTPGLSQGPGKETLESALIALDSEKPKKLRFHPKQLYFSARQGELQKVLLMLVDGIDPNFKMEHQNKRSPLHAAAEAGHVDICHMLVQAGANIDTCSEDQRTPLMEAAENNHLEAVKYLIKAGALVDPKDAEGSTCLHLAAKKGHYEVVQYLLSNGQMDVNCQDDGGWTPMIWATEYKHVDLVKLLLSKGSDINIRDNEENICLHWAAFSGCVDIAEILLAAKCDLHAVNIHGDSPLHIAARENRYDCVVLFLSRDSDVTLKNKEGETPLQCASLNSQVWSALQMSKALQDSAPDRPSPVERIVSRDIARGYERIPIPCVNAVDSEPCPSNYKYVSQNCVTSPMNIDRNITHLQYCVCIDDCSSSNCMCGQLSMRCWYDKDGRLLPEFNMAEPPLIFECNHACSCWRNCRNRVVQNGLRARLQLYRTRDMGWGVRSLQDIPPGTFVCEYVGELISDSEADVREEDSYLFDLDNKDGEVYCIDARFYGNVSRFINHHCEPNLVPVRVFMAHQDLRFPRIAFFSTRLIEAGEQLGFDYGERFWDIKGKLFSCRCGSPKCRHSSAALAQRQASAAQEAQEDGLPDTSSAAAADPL
# B1: U2AF2 (protein, UniProt P26368 2-475, looked up)
# Splicing factor U2AF 65 kDa …: SDFDEFERQLNENKQERDKENRHRKRSHSRSRSRDRKRRSRSRDRRNRDQRSASRDRRRRSKPLTRGAKEEHGGLIRSPRHEKKKKVRKYWDVPPPGFEHITPMQYKAMQAAGQIPATALLPTMTPDGLAVTPTPVPVVGSQMTRQARRLYVGNIPFGITEEAMMDFFNAQMRLGGLTQAPGNPVLAVQINQDKNFAFLEFRSVDETTQAMAFDGIIFQGQSLKIRRPHDYQPLPGMSENPSVYVPGVVSTVVPDSAHKLFIGGLPNYLNDDQVKELLTSFGPLKAFNLVKDSATGLSKGYAFCEYVDINVTDQAIAGLNGMQLGDKKLLVQRASVGAKNATLVSPPSTINQTPVTLQVPGLMSSQVQMGGHPTEVLCLMNMVLPEELLDDEEYEEIVEDVRDECSKYGLVKSIEIPRPVDGVEVPGCGKIFVEFTSVFDCQKAMQGLTGRKFANRVVVTKYCDPDSYHRRDFW
# B2: HNRNPA2B1 (protein, UniProt P22626 1-353, looked up)
# Heterogeneous nuclear …: MEKTLETVPLERKKREKEQFRKLFIGGLSFETTEESLRNYYEQWGKLTDCVVMRDPASKRSRGFGFVTFSSMAEVDAAMAARPHSIDGRVVEPKRAVAREESGKPGAHVTVKKLFVGGIKEDTEEHHLRDYFEEYGKIDTIEIITDRQSGKKRGFGFVTFDDHDPVDKIVLQKYHTINGHNAEVRKALSRQEMQEVQSSRSGRGGNFGFGDSRGGGGNFGPGPGSNFRGGSDGYGSGRGFGDGYNGYGGGPGGGNFGGSPGYGGGRGGYGGGGPGYGNQGGGYGGGYDNYGGGNYGSGNYNDFGNYNQQPSNYGPMKSGNFGGSRNMGGPYGGGNYGPGGSGGSGGYGGRSRY
# B3: HNRNPD (protein, UniProt Q14103 2-355, looked up)
# Heterogeneous nuclear …: SEEQFGGDGAAAAATAAVGGSAGEQEGAMVAATQGAAAAAGSGAGTGGGTASGGTEGGSAESEGAKIDASKNEEDEGHSNSSPRHSEAATAQREEWKMFIGGLSWDTTKKDLKDYFSKFGEVVDCTLKLDPITGRSRGFGFVLFKESESVDKVMDQKEHKLNGKVIDPKRAKAMKTKEPVKKIFVGGLSPDTPEEKIREYFGGFGEVESIELPMDNKTNKRRGFCFITFKEEEPVKKIMEKKYHNVGLSKCEIKVAMSKEQYQQQQQWGSRGGFAGRARGRGGGPSQNWNQGYSNYWNQGYGNYGYNSQGYGGYGGYDYTGYNNYYGYGDYSNQQSGYGKVSRRGGHQNSYKPY
# B4: PRPF4 (protein, UniProt O43172 1-522, looked up)
# U4/U6 small nuclear …: MASSRASSTQATKTKAPDDLVAPVVKKPHIYYGSLEEKERERLAKGESGILGKDGLKAGIEAGNINITSGEVFEIEEHISERQAEVLAEFERRKRARQINVSTDDSEVKACLRALGEPITLFGEGPAERRERLRNILSVVGTDALKKTKKDDEKSKKSKEEYQQTWYHEGPNSLKVARLWIANYSLPRAMKRLEEARLHKEIPETTRTSQMQELHKSLRSLNNFCSQIGDDRPISYCHFSPNSKMLATACWSGLCKLWSVPDCNLLHTLRGHNTNVGAIVFHPKSTVSLDPKDVNLASCAADGSVKLWSLDSDEPVADIEGHTVRVARVMWHPSGRFLGTTCYDRSWRLWDLEAQEEILHQEGHSMGVYDIAFHQDGSLAGTGGLDAFGRVWDLRTGRCIMFLEGHLKEIYGINFSPNGYHIATGSGDNTCKVWDLRQRRCVYTIPAHQNLVTGVKFEPIHGNFLLTGAYDNTAKIWTHPGWSPLKTLAGHEGKVMGLDISSDGQLIATCSYDRTFKLWMAE
# B5: SNX9 (protein, UniProt Q9Y5X1 1-595, looked up)
# Sorting nexin-9: MATKARVMYDFAAEPGNNELTVNEGEIITITNPDVGGGWLEGRNIKGERGLVPTDYVEILPSDGKDQFSCGNSVADQAFLDSLSASTAQASSSAASNNHQVGSGNDPWSAWSASKSGNWESSEGWGAQPEGAGAQRNTNTPNNWDTAFGHPQAYQGPATGDDDDWDEDWDGPKSSSYFKDSESADAGGAQRGNSRASSSSMKIPLNKFPGFAKPGTEQYLLAKQLAKPKEKIPIIVGDYGPMWVYPTSTFDCVVADPRKGSKMYGLKSYIEYQLTPTNTNRSVNHRYKHFDWLYERLLVKFGSAIPIPSLPDKQVTGRFEEEFIKMRMERLQAWMTRMCRHPVISESEVFQQFLNFRDEKEWKTGKRKAERDELAGVMIFSTMEPEAPDLDLVEIEQKCEAVGKFTKAMDDGVKELLTVGQEHWKRCTGPLPKEYQKIGKALQSLATVFSSSGYQGETDLNDAITEAGKTYEEIASLVAEQPKKDLHFLMECNHEYKGFLGCFPDIIGTHKGAIEKVKESDKLVATSKITLQDKQNMVKRVSIMSYALQAEMNHFHSNRIYDYNSVIRLYLEQQVQFYETIAEKLRQALSRFPVM
# Test system: 3×MBT domain of L3MBTL1
# Test: Triple SILAC pull-down, 3xMBT/3xMBTD355N ratio (cytoplasmic, nuclear and chromatin fractions of 293T cells);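 note: proteins quantified with MaxQuant, requiring at least two unique peptides and quantification in both label directions, normalized to the mean of proteins from a digested loading control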
# Assay type: binding, human
# Conditions: SILAC ratio, pull-down 3xMBT vs 3xMBTD355N; experiment with UNC0638 in heavy SILAC media
row,Molecule,3xMBT/D355N UNC Heavy [log base 2]
1,B1,2.86
2,B2,3.43
3,B3,4.07
4,B4,2.85
5,B5,2.60

# Same assay, conditions: SILAC ratio, pull-down 3xMBT vs 3xMBTD355N; experiment with UNC0638 in light SILAC media
row,Molecule,3xMBT/D355N UNC Light [log base 2]
1,B1,2.60
2,B2,3.97
3,B3,4.56
4,B4,2.26
5,B5,2.47

# Target: T1, G9a and GLP
# Test: Triple SILAC pull-down after UNC0638 treatment of 293T cells, DMSO/UNC0638 ratio of protein captured by 3×MBT;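 note: mass spectrometry (Q-Exactive) SILAC quantitation, DMSO/UNC0638 ratio computed after subtracting 3×MBTD355N mutant pull-down background, only proteins with at least twofold 3×MBT over mutant signal considered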
# Assay type: cell-based
# Set-up: cells were treated for 24 hours with UNC0638 at 2.5 μM or DMSO vehicle control; endogenous in cells; host or cells: HEK 293T
# Conditions: SILAC ratio DMSO/UNC0638 of protein pulled down with 3xMBT; UNC0638 in heavy SILAC media
row,Relative to UNC0638 UNC Heavy [log base 2],Molecule
1,0.14,B1
2,0.07,B2
3,0.06,B3
4,0.63,B4
5,0.31,B5

# Same assay, conditions: SILAC ratio DMSO/UNC0638 of protein pulled down with 3xMBT; UNC0638 in light SILAC media
row,Relative to UNC0638 UNC Light [log base 2],Molecule
1,0.20,B1
2,0.28,B2
3,0.29,B3
4,−0.28,B4
5,0.04,B5

# Same assay, conditions: average of UNC Light and UNC Heavy experiments
row,Relative to UNC0638 Average [log base 2],Molecule
1,0.17,B1
2,0.18,B2
3,0.18,B3
4,0.18,B4
5,0.18,B5
